Substrate in the data set: COc1cc(S(=O)(=O)O)c(C)cc1N=Nc1c(O)ccc2cc(S(=O)(=O)O)ccc12
The data set can be described thus: purified protein. The note with it: 2,000 µM NADH, 20 µM FMN, 20 mM sodium phosphate buffer, 37°C, aerobic.

B1: AzoR (Escherichia coli K-12) (protein)
chain: SKVLVLKSSILAGYSQSNQLSDYFVEQWREKHSADEITVRDLAANPIPVLDGELVGALRPSDAPLTPRQQEALALSDELIAELKAHDVIVIAAPMYNFNISTQLKNYFDLVARAGVTFRYTENGPEGLVTGKKAIVITSRGGIHKDGPTDLVTPYLSTFLGFIGITDVKFVFAEGIAYGPEMAAKAQSDAKAAIDSIVSA
On to B1, for which the Km stood at 67.7 µM.

These data come from publication PMC10653809.
